Laboratory results as given in article PMC314469, “Protein Interaction Networks by Proteome Peptide Scanning” (PLoS Biology, 2004).
Blank lines part the entries; values can stand above or below the binder they belong to.

Assays:
Assay in all cases: SPOT array
[1] = biological target: Sho1 SH3 (SHO1_YEAST), P40073
[2] = biological target: T1, Boi1 SH3 (BOI1_YEAST), P38041
T1 chain: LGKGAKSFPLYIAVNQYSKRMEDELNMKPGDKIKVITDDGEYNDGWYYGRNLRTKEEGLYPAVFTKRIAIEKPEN

[3] = biological target: T2, Boi2 SH3 (BOI2_YEAST), P39969
T2 chain: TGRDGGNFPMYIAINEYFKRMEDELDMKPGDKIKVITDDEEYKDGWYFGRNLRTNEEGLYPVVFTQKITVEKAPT

[4] = biological target: T3, Myo5 SH3 (MYO5_YEAST), Q04439
T3 chain: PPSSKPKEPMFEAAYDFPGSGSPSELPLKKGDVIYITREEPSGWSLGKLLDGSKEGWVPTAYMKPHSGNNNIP

[5] = biological target: T4, Rvs167 SH3 (RV167_YEAST), P39743
T4 chain: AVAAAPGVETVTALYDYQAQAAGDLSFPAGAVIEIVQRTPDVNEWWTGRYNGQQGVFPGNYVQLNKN

[6] = biological target: T5, Yfr024 SH3 (LSB3_YEAST), P43603
T5 chain: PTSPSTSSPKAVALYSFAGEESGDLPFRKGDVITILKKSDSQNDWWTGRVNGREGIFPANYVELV

[7] = biological target: T6, Yhr016c SH3 (YSC84_YEAST), P32793
T6 chain: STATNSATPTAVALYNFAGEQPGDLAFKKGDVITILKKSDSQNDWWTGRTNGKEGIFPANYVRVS

Chain of Sho1 SH3 (SHO1_YEAST), P40073 (P40073 295-366): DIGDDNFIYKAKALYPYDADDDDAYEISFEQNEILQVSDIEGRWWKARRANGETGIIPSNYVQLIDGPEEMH

normalised SPOT signal, Boehringer light units (BLU); mean over the file's lines of this peptide [1]: 184
Binder: NHIPPFPLRFSFAQ [532-545 Hypothetical ORF]

normalised SPOT signal, Boehringer light units (BLU); mean over the file's lines of this peptide [2]: 360 | normalised SPOT signal, Boehringer light units (BLU); mean over the file's lines of this peptide [3]: 25.4 | normalised SPOT signal, Boehringer light units (BLU); mean over the file's lines of this peptide [4]: 779 | normalised SPOT signal, Boehringer light units (BLU); mean over the file's lines of this peptide [5]: 216 | normalised SPOT signal, Boehringer light units (BLU); mean over the file's lines of this peptide [1]: 40.5 | normalised SPOT signal, Boehringer light units (BLU); mean over the file's lines of this peptide [6]: 154 | normalised SPOT signal, Boehringer light units (BLU); mean over the file's lines of this peptide [7]: 135
Binder: NLSLRYAPNLPPVI [YHL035C 1327-1340]

normalised SPOT signal, Boehringer light units (BLU); mean over the file's lines of this peptide [1]: 141
Binder: MVLPPAPPKNSDPS [764-777 mitohcondrial RNA polymerase]

normalised SPOT signal, Boehringer light units (BLU); mean over the file's lines of this peptide [1]: 96.7
Binder: LTLPFGPVKSIWLS [189-202 glucosyltransferase]

normalised SPOT signal, Boehringer light units (BLU); mean over the file's lines of this peptide [1]: 102
Binder: LVTPEEPAKNKSER [13-26 Hypothetical ORF]

normalised SPOT signal, Boehringer light units (BLU); mean over the file's lines of this peptide [1]: 284
Binder: MSLPVTPVKSKVSS [50-63 Putative participant in 3' mRNA processing]

normalised SPOT signal, Boehringer light units (BLU); mean over the file's lines of this peptide [1]: 2570
Binder: LSLPRLPNKHHWPL [116-129 Hypothetical ORF]

normalised SPOT signal, Boehringer light units (BLU); mean over the file's lines of this peptide [1]: 181
Binder: MKAPKMPDKHRDNY [923-936 similar to RNA helicases]

normalised SPOT signal, Boehringer light units (BLU); mean over the file's lines of this peptide [1]: 148
Binder: LTSPKNPIKSVTKF [569-582 translation termination factor eRF3]

normalised SPOT signal, Boehringer light units (BLU); mean over the file's lines of this peptide [1]: 201
Binder: NDDPVIPYKLSKDT [1037-1050 DNA replication helicase]

normalised SPOT signal, Boehringer light units (BLU); mean over the file's lines of this peptide [1]: 1100
Binder: MALPRTPLKTSTEE [276-289 Small regulatory subunit of Acetolactate synthase]

normalised SPOT signal, Boehringer light units (BLU); mean over the file's lines of this peptide [1]: 477
Binder: LSKPSKPLKEIRFD [101-114 Hypothetical ORF]

normalised SPOT signal, Boehringer light units (BLU); mean over the file's lines of this peptide [1]: 88
Binder: LSSPSLPPKVNATN [325-338 Guanosine diphosphatase of Golgi membrane]

normalised SPOT signal, Boehringer light units (BLU); mean over the file's lines of this peptide [1]: 415
Binder: MLIPNFPNKKLKLN

normalised SPOT signal, Boehringer light units (BLU); mean over the file's lines of this peptide [1]: 143
Binder: NAPPYVPQRSKQPD [165-178 " Radiation repair protein, putative DNA helicase"]

normalised SPOT signal, Boehringer light units (BLU); mean over the file's lines of this peptide [2]: 187 | normalised SPOT signal, Boehringer light units (BLU); mean over the file's lines of this peptide [3]: 21 | normalised SPOT signal, Boehringer light units (BLU); mean over the file's lines of this peptide [4]: 278 | normalised SPOT signal, Boehringer light units (BLU); mean over the file's lines of this peptide [5]: 67.8 | normalised SPOT signal, Boehringer light units (BLU); mean over the file's lines of this peptide [1]: 67.2 | normalised SPOT signal, Boehringer light units (BLU); mean over the file's lines of this peptide [6]: 835 | normalised SPOT signal, Boehringer light units (BLU); mean over the file's lines of this peptide [7]: 90.5
Binder: NKIPKHLPADPIFS [YCR032W 1499-1512]

normalised SPOT signal, Boehringer light units (BLU); mean over the file's lines of this peptide [1]: 608
Binder: MVRPAPPRRADPEG [11-24 Hypothetical ORF]

normalised SPOT signal, Boehringer light units (BLU); mean over the file's lines of this peptide [2]: 635 | normalised SPOT signal, Boehringer light units (BLU); mean over the file's lines of this peptide [3]: 22.9 | normalised SPOT signal, Boehringer light units (BLU); mean over the file's lines of this peptide [4]: 872 | normalised SPOT signal, Boehringer light units (BLU); mean over the file's lines of this peptide [5]: 83.6 | normalised SPOT signal, Boehringer light units (BLU); mean over the file's lines of this peptide [1]: 88.2 | normalised SPOT signal, Boehringer light units (BLU); mean over the file's lines of this peptide [6]: 568 | normalised SPOT signal, Boehringer light units (BLU); mean over the file's lines of this peptide [7]: 81.6
Binder: NKPKRKRPAPPKKK [YFR013W 78-91]

normalised SPOT signal, Boehringer light units (BLU); mean over the file's lines of this peptide [1]: 749
Binder: MVTPSKPPKKSVGF [147-160 Hypothetical ORF]

normalised SPOT signal, Boehringer light units (BLU); mean over the file's lines of this peptide [2]: 743 | normalised SPOT signal, Boehringer light units (BLU); mean over the file's lines of this peptide [3]: 1.2 | normalised SPOT signal, Boehringer light units (BLU); mean over the file's lines of this peptide [4]: 12500 | normalised SPOT signal, Boehringer light units (BLU); mean over the file's lines of this peptide [5]: 64.5 | normalised SPOT signal, Boehringer light units (BLU); mean over the file's lines of this peptide [1]: 53 | normalised SPOT signal, Boehringer light units (BLU); mean over the file's lines of this peptide [6]: 518 | normalised SPOT signal, Boehringer light units (BLU); mean over the file's lines of this peptide [7]: 198
Binder: NIPTKSPPKSPKHK [YLL065W 94-107]

normalised SPOT signal, Boehringer light units (BLU); mean over the file's lines of this peptide [2]: 426 | normalised SPOT signal, Boehringer light units (BLU); mean over the file's lines of this peptide [3]: 142 | normalised SPOT signal, Boehringer light units (BLU); mean over the file's lines of this peptide [4]: 363 | normalised SPOT signal, Boehringer light units (BLU); mean over the file's lines of this peptide [5]: 1080 | normalised SPOT signal, Boehringer light units (BLU); mean over the file's lines of this peptide [1]: 104 | normalised SPOT signal, Boehringer light units (BLU); mean over the file's lines of this peptide [6]: 327 | normalised SPOT signal, Boehringer light units (BLU); mean over the file's lines of this peptide [7]: 2740
Binder: NLKTKSHPEVPRLD [YLR189C 152-165]

normalised SPOT signal, Boehringer light units (BLU); mean over the file's lines of this peptide [1]: 200
Binder: LRSPNTPRRLRKTL [198-211;312-325;376-389;96-109 Hypothetical ORF;Y'-helicase protein 1]

normalised SPOT signal, Boehringer light units (BLU); mean over the file's lines of this peptide [1]: 164
Binder: MEYPFKPPKMQFDT [60-73 ubiquitin-conjugating enzyme]

normalised SPOT signal, Boehringer light units (BLU); mean over the file's lines of this peptide [1]: 330
Binder: NEYPSKPPKVKFPA [66-79 ubiquitin-conjugating enzyme]

normalised SPOT signal, Boehringer light units (BLU); mean over the file's lines of this peptide [1]: 182
Binder: LVQPNVPEKHNMST [144-157 Hypothetical ORF]

normalised SPOT signal, Boehringer light units (BLU); mean over the file's lines of this peptide [1]: 67
Binder: LSTPSAPAKINNYS [605-618 Hypothetical ORF]

normalised SPOT signal, Boehringer light units (BLU); mean over the file's lines of this peptide [2]: 3420 | normalised SPOT signal, Boehringer light units (BLU); mean over the file's lines of this peptide [3]: 18.7 | normalised SPOT signal, Boehringer light units (BLU); mean over the file's lines of this peptide [4]: 292 | normalised SPOT signal, Boehringer light units (BLU); mean over the file's lines of this peptide [5]: 124 | normalised SPOT signal, Boehringer light units (BLU); mean over the file's lines of this peptide [1]: 74.8 | normalised SPOT signal, Boehringer light units (BLU); mean over the file's lines of this peptide [6]: 187 | normalised SPOT signal, Boehringer light units (BLU); mean over the file's lines of this peptide [7]: 110
Binder: NITEKSPPKSPKHK [YDR543C 77-90]

normalised SPOT signal, Boehringer light units (BLU); mean over the file's lines of this peptide [1]: 46.1
Binder: LVQPVVPDKVFSFR [368-381 Hypothetical ORF]

normalised SPOT signal, Boehringer light units (BLU); mean over the file's lines of this peptide [1]: 210
Binder: NANPFLPNKHPVTQ [38-51 Mitochondrial ribosomal protein MRPL25 (YmL25)]
